Laboratory results as given in US11814663B2, “Microorganisms with improved 1,3-propanediol and butyric acid production” (METABOLIC EXPLORER, priority 2018, dated 2023).
Where a chain is given by its changes, count along the chain named. Names and notes keep the numbering of the source.

Assays:
Type in all cases: biochemical, Clostridium acetobutylicum ATCC824
[1] = target: T1, Clostridium acetobutylicum glycerol kinase GlpK wt (glpK, CA_C1321, Uniprot Q97JG4), SEQ ID NO: 1 (Clostridium acetobutylicum, UniProt Q97JG4); experiment: Glycerol kinase activity towards glycerol (ADP appearance coupled to NADH oxidation), wild type; conditions: pH 9, 30° C., 2 mM ATP, 0.01-50 mM glycerol
T1 construct: GlpK wt; Q97JG4; made in house; host or cells: E. coli BL21(DE3) star
T1 sequence (Q97JG4 1-498): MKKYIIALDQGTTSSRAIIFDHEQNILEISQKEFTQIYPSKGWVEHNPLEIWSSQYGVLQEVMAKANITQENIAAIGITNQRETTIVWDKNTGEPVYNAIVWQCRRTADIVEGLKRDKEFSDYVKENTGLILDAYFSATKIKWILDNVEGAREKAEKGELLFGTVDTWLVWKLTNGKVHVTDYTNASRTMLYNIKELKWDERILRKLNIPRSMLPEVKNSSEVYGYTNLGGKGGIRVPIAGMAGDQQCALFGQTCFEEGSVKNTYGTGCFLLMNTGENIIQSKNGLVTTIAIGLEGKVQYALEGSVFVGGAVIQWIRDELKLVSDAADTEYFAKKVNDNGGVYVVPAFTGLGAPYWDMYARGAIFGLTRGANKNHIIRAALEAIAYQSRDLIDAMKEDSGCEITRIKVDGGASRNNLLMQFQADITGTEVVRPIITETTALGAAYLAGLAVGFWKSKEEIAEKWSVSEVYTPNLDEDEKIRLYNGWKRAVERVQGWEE
Description: (§1) Three different point mutations were identified in glpK gene in the clone PD0557Vc05 leading to the mutant protein GlpK* with H22Y, A347T and V466M (table 2 above). In order to better characterize the effect of the mutations, we tested them individually or in combination. Therefore, the alleles coding for the mutated glycerol kinase were cloned into the expression plasmid pPAL7 (Biorad®) and the plasmids obtained were transformed into E. coli strain BL21(DE3) star to purify each mutated protein and perform biochemical experiments. […]
(§2) The proteins were purified from the crude cell-extract by affinity on a Profinity column (BIORAD, Bio-Scale Mini Profinity exact cartridge 5 ml) according to the protocol recommended by the manufacturer. […] Protein concentration was measured using the Bradford protein assay.
(§3) Determination of kinetic parameters of GlpK wild type and mutants Glycerol kinase activity (GLPK) that catalyses the following reaction: Glycerol+ATP=>Glycerol-3-Phosphate+ADP, was determined by measuring the ADP appearance by enzymatic coupling to NADH oxidation. […] The oxidation of NADH was monitored at 30° C. by absorbance at 340 nm on a spectrophotometer (λ340=6290 M^−1 cm^−1).
(§4) One unit of enzyme activity was defined as the amount of enzyme catalyzing the decrease of 1 μmol of NADH per min. Kinetic parameters were determined with Sigmaplot by fitting to the Michaelis-Menten equation.

[2] = target: T2, Clostridium acetobutylicum glycerol kinase GlpK variant GlpK*(H22Y/A347T/V466M), SEQ ID NO: 13 (Clostridium acetobutylicum, UniProt Q97JG4, A347T/H22Y/V466M); experiment: Glycerol kinase activity towards glycerol (ADP appearance coupled to NADH oxidation), H22Y/A347T/V466M; conditions: pH 9, 30° C., 2 mM ATP, 0.01-50 mM glycerol
T2 construct: made in house; host or cells: E. coli BL21(DE3) star
T2 sequence (Q97JG4 1-498 H22Y/A347T/V466M): T1 sequence (Q97JG4 1-498) with H22Y, A347T, V466M
Description: as §1, §2, §3, §4

[3] = substrate: OCC(O)CO; experiment: as above; conditions: other: GlpK* (H22Y/A347T/V466M), pH 9, 30° C., 2 mM ATP, 0.01-50 mM glycerol
Description: Three different point mutations were identified in glpK gene in the clone PD0557Vc05 leading to the mutant protein GlpK* with H22Y, A347T and V466M (table 2 above). In order to better characterize the effect of the mutations, we tested them individually or in combination. Therefore, the alleles coding for the mutated glycerol kinase were cloned into the expression plasmid pPAL7 (Biorad®) and the plasmids obtained were transformed into E. coli strain BL21(DE3) star to purify each mutated protein and perform biochemical experiments.
Cultures of the seven strains 1 to 7 for the overproduction of the proteins were realized in a 2 L Erlenmeyer flask, using LB broth (Bertani, 1951) that was supplemented with 5 g/L glucose and 100 mg/L of ampicillin. An overnight culture was used to inoculate a 500 mL culture to an OD600 nm of about 0.15. The culture was first kept on a shaker at 37° C. and 200 rpm until OD600 nm was about 0.5 and then the culture was moved on a second shaker at 25° C. and 200 rpm until OD600 nm was 0.6-0.8 (about one hour), before induction with 500 μM IPTG. The culture was kept at 25° C. and 200 rpm until OD600 nm was around 4, and then it was stopped. Cells were centrifuged at 7000 rpm, 5 minutes at 4° C., and then stored at −20° C. This protocol was the same for strains 1 to 7.
For each strain, about 250 mg of E. coli biomass was suspended in 40 ml of 100 mM potassium phosphate pH 7.6, and a protease inhibitor cocktail. The cells suspension (15 ml per conical tube) was sonicated on ice (Bandelin sonoplus, 70 w) in a 50 ml conical tube during 8 cycles of 30 sec with 30 sec intervals. After sonication, cells were incubated for 30 min at room temperature with 5 mM MgCl2 and 1 UI/ml of DNaseI. Cells debris were removed by centrifugation at 12000 g for 30 min at 4° C.
as §2, with “manufacturer. The crude extract was loaded on a 5 ml Profinity exact cartridge equilibrated with 100 mM potassium phosphate pH 7.6.” for “manufacturer.”
as §3, §4

OCC(O)CO [glycerol]
Kcat/km [1]: 1.52e+06 M⁻¹ s⁻¹
Kcat/km [2]: 33900 M⁻¹ s⁻¹

B1: Clostridium acetobutylicum glycerol kinase GlpK variant GlpK*(H22Y/A347T/V466M), SEQ ID NO: 13 (Clostridium acetobutylicum ATCC 824; A347T/H22Y/V466M) (protein)
chain: T1 sequence (Q97JG4 1-498) with H22Y, A347T, V466M
notes: GlpK*(H22Y/); made in house; host or cells: E. coli BL21(DE3) star
Km [3]: 39 ± 2 µM
Vmax [3]: 1404 ± 13 nmol/min/mg
kcat [3]: 1.32 ± 0.012 s⁻¹
kcat/Km [3]: 33900 ± 2300 M⁻¹ s⁻¹
